{"source": "patent US20110065645A1", "about": "“Compositions and Methods for Modulating Neuron Degeneration and Neuron Guidance” (The Regents of the University of California, priority 2009, published 2011)", "molecules": {"B1": {"name": "sFPR2: a Wnt inhibitor, secreted Frizzled-related protein (protein, UniProt Q96HF1 25-295, looked up)", "Secreted frizzled-related …": "LFLFGQPDFSYKRSNCKPIPANLQLCHGIEYQNMRLPNLLGHETMKEVLEQAGAWIPLVMKQCHPDTKKFLCSLFAPVCLDDLDETIQPCHSLCVQVKDRCAPVMSAFGFPWPDMLECDRFPQDNDLCIPLASSDHLLPATEEAPKVCEACKNKNDDDNDIMETLCKNDFALKIKVKEITYINRDTKIILETKSKTIYKLNGVSERDLKKSVLWLKDSLQCTCEEMNDINAPYLVMGQKQGGELVITSVKRWQKGQREFKRISRSIRKLQC"}, "B2": {"name": "Wnt7a: recombinant Wnt7a (protein, UniProt O00755 32-349, looked up)", "Protein Wnt-7a": "LGASIICNKIPGLAPRQRAICQSRPDAIIVIGEGSQMGLDECQFQFRNGRWNCSALGERTVFGKELKVGSREAAFTYAIIAAGVAHAITAACTQGNLSDCGCDKEKQGQYHRDEGWKWGGCSADIRYGIGFAKVFVDAREIKQNARTLMNLHNNEAGRKILEENMKLECKCHGVSGSCTTKTCWTTLPQFRELGYVLKDKYNEAVHVEPVRASRNKRPTFLKIKKPLSYRKPMDTDLVYIEKSPNYCEEDPVTGSVGTQGRACNKTAPQASGCDLMCCGRGYNTHQYARVWQCNCKFHWCCYVKCNTCSERTEMYTCK"}, "B3": {"name": "Dvl1: Dvl1-EGFP expressed by transfection in HEK293T cells (protein)", "chain": "MAETKIIYHMDEEETPYLVKLPVAPERVTLADFKNVLSNRPVHAYKFFFKSMDQDFGVVKEEIFDDNAKLPCFNGRVVSWLVLAEGAHSDAGSQGTDSHTDLPPPLERTGGIGDSRPPSFHPNVASSRDGMDNETGTESMVSHRRERARRRNRDEAARTNGHPRGDRRRDLGLPPDSASTVLSSELESSSFIDSDEEDNTSRLSSSTEQSTSSRLVRKHKCRRRKQRLRQTDRASSFSSITDSTMSLNIITVTLNMERHHFLGISIVGQSNDRGDGGIYIGSIMKGGAVAADGRIEPGDMLLQVNDVNFENMSNDDAVRVLREIVSQTGPISLTVAKCWDPTPRSYFTIPRADPVRPIDPAAWLSHTAALTGALPRYGTSPCSSAITRTSSSSLTSSVPGAPQLEEAPLTVKSDMSAIVRVMQLPDSGLEIRDRMWLKITIANAVIGADVVDWLYTHVEGFKERREARKYASSMLKHGFLRHTVNKITFSEQCYYVFGDLCSNLASLNLNSGSSGASDQDTLAPLPHPSVPWPLGQGYPYQYPGPPPCFPPAYQDPGFSCGSGSAGSQQSEGSKSSGSTRSSHRTPGREERRATGAGGSGSESDHTVPSGSGSTGWWERPVSQLSRGSSPRSQASAVAPGLPPLHPLTKAYAVVGGPPGGPPVRELAAVPPELTGSRQSFQKAMGNPCEFFVDIM", "modifications": "left off: large carriers", "notes": "Dvl1-EGFP expressed by transfection in HEK293T cells"}}, "format_in_all_cases": "cell-based", "key": {"β-catenin": {"tested_on": "β-catenin", "assay": "β-catenin immunostaining in commissural axon growth cones", "conditions": "bath application; LiCl 2 mM", "description": "To understand how atypical PKC/Par pathway regulates axon guidance, we set out to determine the subcellular localization of aPKC, their substrates and downstream cellular effectors. […] Thus, our high-resolution confocal imaging detects a tendency of β-catenin being concentrated to one side of the growth cone (FIG. 9A). It is possible that there is low level of Wnt proteins in the culture (many neurons express Wnts). […] Therefore, it is also possible that intrinsic aPKC signaling can create chirality within the growth cone with out extrinsic signals. Such intrinsic polarity may then robustly regulate cellular morphology upon directional instructions from the environment such as a Wnt gradient. It is well known that GSK3β phosphorylates β-catenin, which then leads to proteosome-mediated degradation of β-catenin. And it is also known that GSK3β is phosphorylated and inhibited by PKCζ^(1,2). Therefore, inhibiting GSK3β or the proteosome activity generally should increase β-catenin level throughout the growth cone, canceling the asymmetry. […] We are now testing the hypothesis that Wnt proteins may locally activate PKCζ, which then inhibits GSK3β and locally stabilizes β-catenin, which is part of the asymmetric cellular mechanism leading to directional choice of a growth cone. We examine the localization of β-catenin in post-crossing commissural axon growth cones in the “post-crossing” assay and “open-book” assays."}, "cortical neurons": {"tested_on": "cortical neurons", "assay": "Cortical neuron death/survival assay under PKCζ inhibition (Tuj1, TUNEL, DAPI staining)", "conditions": "for cell death induced by PKC inhibition: pretreatment before pseudosubstrate peptide", "description": "1. PKCζ is required for survival of cortical neurons. E15.5 cortical neurons were dissociated and cultured for 2 days in the presence of various concentrations of a cell membrane penetrating myristoylated peptide derived in the pseudosubstrate domain of PKC (FIGS. 12A-12D). This peptide is a specific inhibitor of PKCζ.\n2. Axon degeneration procedes cell body death when PKC is inhibited. We examined the timing of axon degeneration and cell body death. […] The death induced by PKCζ inhibition is much faster than Aβ peptide induced neuronal death (FIG. 12D), probably because the PKCζ is an essential kinase and peptide inhibition causes instant death, whereas Aβ has to bind to cell surface receptor and trigger a signaling cascade to cause death, which requires a longer time.\n3. Wnts are trophic factors for cortical neurons. […] Nuclear shrinkage (pyknosis) is a hallmark of neuronal cell death. Using DAPI staining, we can visualize the cell nuclei (FIG. 14B). […] Initial cortical axons and dendrite form and grow but axons start to disintegrate at E18.5 (FIG. 14D, from Wang et al 2006),^(13) (FIGS. 12F, 12K). Based on our preliminary results, we propose that Wnts are not only axon guidance molecules but also regulate neuronal survival and axon degeneration acting via PKC (FIG. 15).\n3. Survival and cell death assays for screening of monoclonal antibodies and small compounds. We use the same cell death/survival assay as described in FIGS. 12A-14D and use microtubule staining to analyze the integrity of microtubules, DAPI stain to measure the size of cell nuclei and TUNEL staining to assay cell death. Microtubule disassembly is quantified by staining intensity of Tuj1 and Tau antibodies. The size of cell nuclei is binned into difference sizes and the distribution of the nuclei size is used as quantification of pyknosis (FIG. 14C)."}, "Fzd3": {"molecular_target": "T1, Fzd3 (Mus musculus, UniProt Q61086)", "T1 construct": "expressed in transfected cells; host or cells: HEK293T", "T1 sequence (Q61086 23-666)": "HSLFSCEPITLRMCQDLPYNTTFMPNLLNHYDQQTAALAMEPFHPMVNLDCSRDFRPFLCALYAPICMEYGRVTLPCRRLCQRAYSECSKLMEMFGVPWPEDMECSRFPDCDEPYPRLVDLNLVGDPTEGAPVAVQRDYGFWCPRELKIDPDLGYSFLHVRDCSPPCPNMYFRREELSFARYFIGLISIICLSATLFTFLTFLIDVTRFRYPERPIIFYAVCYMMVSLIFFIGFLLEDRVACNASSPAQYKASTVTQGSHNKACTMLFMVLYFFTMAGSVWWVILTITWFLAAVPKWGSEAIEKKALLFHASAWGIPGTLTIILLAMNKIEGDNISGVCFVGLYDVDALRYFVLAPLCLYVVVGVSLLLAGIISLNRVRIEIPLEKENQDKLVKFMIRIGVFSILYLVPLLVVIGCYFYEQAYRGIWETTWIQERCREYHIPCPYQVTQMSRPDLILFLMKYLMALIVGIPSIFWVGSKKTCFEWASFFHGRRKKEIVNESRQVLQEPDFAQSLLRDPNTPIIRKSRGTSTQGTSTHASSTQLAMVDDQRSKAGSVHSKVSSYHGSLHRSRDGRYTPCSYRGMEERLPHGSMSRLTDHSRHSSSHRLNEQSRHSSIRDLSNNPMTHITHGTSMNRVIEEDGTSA", "assay": "Surface biotinylation and avidin immunoprecipitation of Fzd3 in HEK293T cells", "conditions": "HEK293T co-transfection, Vgl2 value in the presence of Dvl1", "description": "Dvl and Vgl have antagonistic functions on Fzd3 phosphorylation. […] We transfected Fzd3-mCherry in HEK293T cells then surface biotinylated and immunoprecipitated (IP) the surface molecules with strepavidin-conjugated beads to obtain membrane-localized proteins. […] We tested whether these two Fzd3 bands represent phosphorylation states of the Frizzled3 protein, one being phosphorylated/hyperphosphorylated Fzd3 (p-Fzd3) and the other non-phosphorylated Fzd3. […] Phosphorylation of Fzds has been shown previously in Xenopus oocytes\nIt has been proposed that Frizzled internalization is necessary for PCP signaling and phenotypes (Gagliardi et al., 2008; Yu et al., 2007). However, it has never been directly tested whether the cell surface level of Fzd, the Wnt-PCP receptor, changes upon Wnt addition. By using our surface biotinylation and immunoprecipitation with avidin, we show here, 15 minutes after Wnt addition, cell surface level of Fzd3-EGFP is diminished (FIG. 18C, Avidin IP, lane 3 anti-EGFP IB). […] This Fzd3 receptor oscillation from and to the membrane appeared to be a Wnt-Fzd specific effect because a non-Wnt binding receptor, such as the Insulin receptor stayed the same throughout the Wnt stimulation (FIG. 18C, Avidin IP, anti-Insulin Rβ IB). The Wnt-dependent Fzd3 oscillation is quantified in FIG. 18D (cross symboled line). […] In addition, PCP components appeared to effect this Wnt dependent oscillation of Fzd3 to and from the membrane. When Dvl1 is over expressed with Fzd3, we found within 30 minutes Fzd3 is unable to be internalized (FIG. 25B, lanes 5-7 and line). However, upon the introduction of Vangl2 into the transfection mix, Fzd3 oscillation is resumed (FIG. 25B, lanes 8-10 and circle symboled line).\nSurface biotinylation and immunopreciptiation. 30 hours after transfection with the indicated constructs into HEK293T cells (FuGene, Roche), followed by 8-hour incubation in Optimem and subsequent bath application of recombinant Wnt5a (R&D Systems), surface proteins were subsequently labeled on ice with 1 mg/ml of Sulfo-NHS-LC-Biotin reagent (Pierce). The cell lysates were collect over a period of 30 minutes on ice in the following lysis buffer: 20 mM Tris pH7.6, 150 mM NaCl, 1% Triton, 0.1% SDS, 2.5 mM EDTA, 2.5 mM EGTA, protease Inhibitors (Roche). For the membrane immunoprecipitation, 600 ug of protein extracts were incubated overnight and retrieved by NeutrAvidin-coated Agarose beads (Pierce), the bound fraction was boiled and loaded on SDS-PAGE gel and analyzed by western blot analysis. To visualize the input amount 20 ug of total lysate was loaded, and for the Avidin IPs the total amount was loaded for western blot analysis. The following primary antibodies were used for the immunoblots: α-Frizzled3 (Wang et al., 2006), α-Vangl2 (Santa Cruz), α-mCherry/DsRed (Clontech), α-Jun (Cell Signaling), α-phospho-Jun (Cell Signaling), α-JNK (Cell Signaling), α-phospho-JNK (Cell Signaling), α-Flag (Sigma), α-GAPDH (Chemicon), α-Insulin Rβ (Santa Cruz)."}}, "note": "Peptide text beside a SMILES is read from it. * marks the point of attachment. Cbz = O=C(OCc1ccccc1)*"}
{"molecule": "[Cl-].[Li+]", "note": "[LiCl, reference compound]", "values": [{"measurement": "β-catenin level and asymmetry in the growth cone", "setting": "β-catenin", "value": "elevated the level of β-catenin throughout the growth cone"}, {"measurement": "pyknosis (nuclear shrinkage, DAPI staining, Image J)", "setting": "cortical neurons; neuronal death induced by PKCζ inhibition", "value": "partially blocked"}, {"measurement": "cell death induced by PKC inhibition", "setting": "cortical neurons", "value": "block/reduce the cell death"}]}
{"molecule": "Vgl2: Vang Gogh Like protein 2 expressed by transfection in HEK293T cells", "values": [{"measurement": "Fzd3 at the membrane relative to Fzd3-mCherry transfected alone", "setting": "Fzd3", "value": 2, "unit": "fold"}]}
{"molecule": "CC(C)C[C@@H](C=O)NC(=O)[C@H](CC(C)C)NC(=O)[C@H](CC(C)C)NC(=O)OCc1ccccc1", "note": "[MG132, reference compound] (Cbz-Leu-Leu-Leu-aldehyde)", "values": [{"measurement": "β-catenin level and asymmetry in the growth cone", "setting": "β-catenin", "value": "elevated the level of β-catenin throughout the growth cone"}]}
{"molecule": "B1", "values": [{"measurement": "β-catenin level and asymmetry in the growth cone", "setting": "β-catenin", "value": "eliminated asymmetric distribution of β-catenin"}]}
{"molecule": "B2", "values": [{"measurement": "axon degeneration / reduction of microtubule staining (Tuj1)", "setting": "cortical neurons; 5 um pseudosubstrate peptide", "value": "much less degeneration was seen"}, {"measurement": "axons remaining judged by Tuj1 staining", "setting": "cortical neurons; 10 um pseudosubstrate peptide", "value": "more axons still remain"}, {"measurement": "cell death induced by PKC inhibition", "setting": "cortical neurons", "value": "block/reduce the cell death"}]}
{"molecule": "B3", "values": [{"measurement": "Fzd3 at the membrane relative to Fzd3-mCherry transfected alone", "setting": "Fzd3", "value": 3, "unit": "fold"}, {"measurement": "Fzd3 at the membrane relative to Fzd3-mCherry transfected alone", "setting": "Fzd3; listed as Dvl", "value": "approximately 3 fold"}]}
